# B1: Sodium-dependent dopamine transporter (Homo sapiens), Q01959 (parent)
# chain: MSKSKCSVGLMSSVVAPAKEPNAVGPKEVELILVKEQNGVQLTSSTLTNPRQSPVEAQDRETWGKKIDFLLSVIGFAVDLANVWRFPYLCYKNGGGAFLVPYLLFMVIAGMPLFYMELALGQFNREGAAGVWKICPILKGVGFTVILISLYVGFFYNVIIAWALHYLFSSFTTELPWIHCNNSWNSPNCSDAHPGDSSGDSSGLNDTFGTTPAAEYFERGVLHLHQSHGIDDLGPPRWQLTACLVLVIVLLYFSLWKGVKTSGKVVWITATMPYVVLTALLLRGVTLPGAIDGIRAYLSVDFYRLCEASVWIDAATQVCFSLGVGFGVLIAFSSYNKFTNNCYRDAIVTTSINSLTSFSSGFVVFSFLGYMAQKHSVPIGDVAKDGPGLIFIIYPEAIATLPLSSAWAVVFFIMLLTLGIDSAMGGMESVITGLIDEFQLLHRHRELFTLFIVLATFLLSLFCVTNGGIYVFTLLDHFAAGTSILFGVLIEAIGVAWFYGVGQFSDDIQQMTGQRPSLYWRLCWKLVSPCFLLFVVVVSIVTFRPPHYGAYIFPDWANALGWVIATSSMAMVPIYAAYKFCSLPGSFREKLAYAIAPEKDRELVDRGEVRQFTLRHWLKV
# partner: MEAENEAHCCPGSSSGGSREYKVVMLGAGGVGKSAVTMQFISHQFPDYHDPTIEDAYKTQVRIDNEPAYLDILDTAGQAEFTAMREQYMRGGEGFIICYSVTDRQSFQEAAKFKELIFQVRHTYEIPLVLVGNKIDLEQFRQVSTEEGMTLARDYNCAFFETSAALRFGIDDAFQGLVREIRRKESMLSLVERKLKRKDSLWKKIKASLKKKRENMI
# Variants of: B1
# Conditions: with rit2_rat Rit2, Q5BJQ5
row,effect of a mutation on the interaction,Variant
1,increasing interaction strength,F587A;R588A;E589A;K590A
